The text below walks through data of patent publication US20250002588A1 (DIAGONAL THERAPEUTICS, published 2025).

This assay concerns the target ALK-1/BMPR-2 receptor pair of the PathHunter U2Os dimerization cells (DiscoverX 93-0962C3) (UniProt P37023 22-503; Q13873 27-1038). Put plainly: cell-based or functional assay.

Chain of ALK-1/BMPR-2 receptor pair of the PathHunter U2Os dimerization cells (DiscoverX 93-0962C3) (P37023 22-503, chain 1 of 2): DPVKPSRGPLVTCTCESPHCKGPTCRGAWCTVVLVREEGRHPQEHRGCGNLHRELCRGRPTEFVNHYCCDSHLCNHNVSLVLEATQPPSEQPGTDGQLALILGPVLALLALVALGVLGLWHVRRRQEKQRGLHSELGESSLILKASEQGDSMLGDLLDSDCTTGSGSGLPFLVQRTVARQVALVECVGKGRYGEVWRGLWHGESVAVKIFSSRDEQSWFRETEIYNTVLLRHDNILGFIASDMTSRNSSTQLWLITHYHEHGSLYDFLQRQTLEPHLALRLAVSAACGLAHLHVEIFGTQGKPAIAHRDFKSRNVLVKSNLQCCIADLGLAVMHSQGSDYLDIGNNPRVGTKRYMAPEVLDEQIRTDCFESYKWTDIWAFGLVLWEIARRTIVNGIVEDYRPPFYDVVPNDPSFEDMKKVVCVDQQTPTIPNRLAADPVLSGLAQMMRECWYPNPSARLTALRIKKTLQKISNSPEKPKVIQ
Chain of ALK-1/BMPR-2 receptor pair of the PathHunter U2Os dimerization cells (DiscoverX 93-0962C3) (Q13873 27-1038, chain 2 of 2): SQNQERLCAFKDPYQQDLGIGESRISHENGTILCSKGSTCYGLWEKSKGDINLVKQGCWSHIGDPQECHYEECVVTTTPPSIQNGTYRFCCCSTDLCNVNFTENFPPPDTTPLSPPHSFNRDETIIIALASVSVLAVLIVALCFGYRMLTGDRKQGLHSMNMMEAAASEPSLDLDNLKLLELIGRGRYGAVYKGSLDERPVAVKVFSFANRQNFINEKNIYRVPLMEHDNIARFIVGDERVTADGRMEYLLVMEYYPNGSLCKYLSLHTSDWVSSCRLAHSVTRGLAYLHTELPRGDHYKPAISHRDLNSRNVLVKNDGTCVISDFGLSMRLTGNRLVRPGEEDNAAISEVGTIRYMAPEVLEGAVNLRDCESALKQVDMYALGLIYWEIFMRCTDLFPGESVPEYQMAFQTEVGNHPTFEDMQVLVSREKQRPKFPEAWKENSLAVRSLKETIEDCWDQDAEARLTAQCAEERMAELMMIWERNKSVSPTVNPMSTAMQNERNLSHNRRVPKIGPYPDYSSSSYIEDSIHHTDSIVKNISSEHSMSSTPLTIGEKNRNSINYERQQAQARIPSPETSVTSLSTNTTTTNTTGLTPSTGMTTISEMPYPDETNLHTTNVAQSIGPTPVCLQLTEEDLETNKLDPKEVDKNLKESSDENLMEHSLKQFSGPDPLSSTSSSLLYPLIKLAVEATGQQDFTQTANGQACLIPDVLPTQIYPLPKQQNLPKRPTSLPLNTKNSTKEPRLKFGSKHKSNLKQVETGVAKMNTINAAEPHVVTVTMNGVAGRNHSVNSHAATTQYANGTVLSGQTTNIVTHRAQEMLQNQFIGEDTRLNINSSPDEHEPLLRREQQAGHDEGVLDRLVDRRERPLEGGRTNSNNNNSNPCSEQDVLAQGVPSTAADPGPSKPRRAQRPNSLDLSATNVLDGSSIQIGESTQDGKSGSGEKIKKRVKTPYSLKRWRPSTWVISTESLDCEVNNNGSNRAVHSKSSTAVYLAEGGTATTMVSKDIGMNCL

B1: DGL285 (bispecific antibody)
chain: EVQLLESGGGLVQPGGSLRLSCAASGFTFSIYAMSWVRQAPGKGLEWVSAISGSGGSTYYADSVKGRFTISRDNSKNTLYLQMNSLRAEDTAVYYCARDFDYWGQGTLVTVTSSGGGGSGGGGSGGGGSQSVLTQPPSASGTPGQRVTISCSGSSSNIGSNYVYWYQQLPGTAPKLLIYGNINRPSGVPDRFSGSKSGTSASLAISGLRSEDEADYYCAAWDDSLNGRVFGGGTKLTVLDKGPSVFPLAPEPKSSEVQLLESGGGLVQPGGSLRLSCAASGFTFSNAWMNWVRQAPGKGLEWVSSISSSSSYIYYADSVKGRFTISRDNSKNTLYLQMNSLRAEDTAVYYCARAVAAGGMFWGLDQWGQGTLVTVTSSGGGGSGGGGSGGGGSQSVLTQPPSASGTPGQRVTISCSGSRSNIGSNSVHWYQQLPGTAPKLLIYGNSNRPSGVPDRFSGSKSGTSASLAISGLRSEDEADYYCQSYDSSLNDHVVFGGGTKLTVLDKTHTCPPCPAPEAAGAPSVFLFPPKPKDTLMISRTPEVTCVVVDVSHEDPEVKFNWYVDGVEVHNAKTKPREEQYNSTYRVVSVLTVLHQDWLNGKEYKCKVSNKALPAPIEKTISKAKGQPREPQVYTLPPSRDELTKNQVSLTCLVKGFYPSDIAVEWESNGQPENNYKTTPPVLDSDGSFFLYSKLTVDKSRWQQGNVFSCSVMHEALHNHYTQKSLSLSPG
For orientation: EC50 means the concentration giving half of the maximal effect. Higher therefore signals lower potency in that assay. Regarding B1, the “% Emax BMP9” value was 56%, a half-maximal response (EC50) required 80 pM and the “Emax (RLU)” value was found to be 1.47e+06 RLU.

B2: DGL286 (bispecific antibody)
chain: EVQLLESGGGLVQPGGSLRLSCAASGFTFSNAWMNWVRQAPGKGLEWVSSISSSSSYIYYADSVKGRFTISRDNSKNTLYLQMNSLRAEDTAVYYCARAVAAGGMFWGLDQWGQGTLVTVTSSGGGGSGGGGSGGGGSQSVLTQPPSASGTPGQRVTISCSGSRSNIGSNSVHWYQQLPGTAPKLLIYGNSNRPSGVPDRFSGSKSGTSASLAISGLRSEDEADYYCQSYDSSLNDHVVFGGGTKLTVLDKGPSVFPLAPEPKSSEVQLLESGGGLVQPGGSLRLSCAASGFTFSIYAMSWVRQAPGKGLEWVSAISGSGGSTYYADSVKGRFTISRDNSKNTLYLQMNSLRAEDTAVYYCARDFDYWGQGTLVTVTSSGGGGSGGGGSGGGGSQSVLTQPPSASGTPGQRVTISCSGSSSNIGSNYVYWYQQLPGTAPKLLIYGNINRPSGVPDRFSGSKSGTSASLAISGLRSEDEADYYCAAWDDSLNGRVFGGGTKLTVLDKTHTCPPCPAPEAAGAPSVFLFPPKPKDTLMISRTPEVTCVVVDVSHEDPEVKFNWYVDGVEVHNAKTKPREEQYNSTYRVVSVLTVLHQDWLNGKEYKCKVSNKALPAPIEKTISKAKGQPREPQVYTLPPSRDELTKNQVSLTCLVKGFYPSDIAVEWESNGQPENNYKTTPPVLDSDGSFFLYSKLTVDKSRWQQGNVFSCSVMHEALHNHYTQKSLSLSPG
With B2, the “% Emax BMP9” value amounted to 68%, the “EC50” value was 200 pM and the “Emax (RLU)” value came to 1.8e+06 RLU.

B3: DGL266 (bispecific antibody)
chain 1: EVQLLESGGGLVQPGGSLRLSCAASGFTFSIYAMSWVRQAPGKGLEWVSAISGSGGSTYYADSVKGRFTISRDNSKNTLYLQMNSLRAEDTAVYYCARDFDYWGQGTLVTVTSSGGGGSGGGGSGGGGSQSVLTQPPSASGTPGQRVTISCSGSSSNIGSNYVYWYQQLPGTAPKLLIYGNINRPSGVPDRFSGSKSGTSASLAISGLRSEDEADYYCAAWDDSLNGRVFGGGTKLTVLGGGGSGGGGSGGGGSGVECPPCPAPPVAGPSVFLFPPKPKDTLMISRTPEVTCVVVDVSHEDPEVQFNWYVDGVEVHNAKTKPREEQFNSTFRVVSVLTVVHQDWLNGKEYKCKVSNKGLPAPIEKTISKTKGQPREPQVYTLPPCREEMTKNQVSLWCLVKGFYPSDIAVEWESNGQPENNYKTTPPMLDSDGSFFLYSKLTVDKSRWQQGNVFSCSVMHEALHNHYTQKSLSLSPG
chain 2: EVQLLESGGGLVQPGGSLRLSCAASGFTFSNAWMNWVRQAPGKGLEWVSSISSSSSYIYYADSVKGRFTISRDNSKNTLYLQMNSLRAEDTAVYYCARAVAAGGMFWGLDQWGQGTLVTVTSSGGGGSGGGGSGGGGSQSVLTQPPSASGTPGQRVTISCSGSRSNIGSNSVHWYQQLPGTAPKLLIYGNSNRPSGVPDRFSGSKSGTSASLAISGLRSEDEADYYCQSYDSSLNDHVVFGGGTKLTVLGGGGSGGGGSGGGGSGVECPPCPAPPVAGPSVFLFPPKPKDTLMISRTPEVTCVVVDVSHEDPEVQFNWYVDGVEVHNAKTKPREEQFNSTFRVVSVLTVVHQDWLNGKEYKCKVSNKGLPAPIEKTISKTKGQPREPQVCTLPPSREEMTKNQVSLSCAVKGFYPSDIAVEWESNGQPENNYKTTPPMLDSDGSFFLVSKLTVDKSRWQQGNVFSCSVMHEALHNHYTQKSLSLSPG
Consider B3, for which the “% Emax BMP9” value turned out to be 39%, the “EC50” value was determined as 2000 pM and the “Emax (RLU)” value is 1.04e+06 RLU.

B4: DGL287 (bispecific antibody)
chain: EVQLLESGGGLVQPGGSLRLSCAASGFTFSSYAMSWVRQAPGKGLEWVANINQDGSEKNYVDSMRGRFTISRDNSKNTLYLQMNSLRAEDTAVYYCAREFDYWGQGTLVTVTSSGGGGSGGGGSGGGGSQSVLAQPPSASGTPGQRVTISCSGSSSNIGSNYVYWYQQLPGTAPKLLIYGNNKRPSGVPDRFSGSKSGTSASLAISGLRSEDEADYYCAAWDDSLNGRVFGGGTKLTVLDKGPSVFPLAPEPKSSEVQLLESGGGLVQPGGSLRLSCAASGFTFSDYYMTWIRQAPGKGLEWVSSISGGSTYYADSRKGRFTISRDNSENTLYLQMNSLRAEDTAVYYCARDFGVAGWFGQYGMDVWGQGTLVTVSSGGGGSGGGGSGGGGSQSVLTQPPSASGTPGQRVTISCTGSSSNIGAGYDVHWYQQLPGTAPKLLIYRSNQRPSGVPDRFSGSKSGTSASLAISGLRSEDEADYYCSSYAGNYNLVFGGGTKLTVLDKTHTCPPCPAPEAAGAPSVFLFPPKPKDTLMISRTPEVTCVVVDVSHEDPEVKFNWYVDGVEVHNAKTKPREEQYNSTYRVVSVLTVLHQDWLNGKEYKCKVSNKALPAPIEKTISKAKGQPREPQVYTLPPSRDELTKNQVSLTCLVKGFYPSDIAVEWESNGQPENNYKTTPPVLDSDGSFFLYSKLTVDKSRWQQGNVFSCSVMHEALHNHYTQKSLSLSPG
For the molecule B4, the “% Emax BMP9” value turned out to be 48%, the “EC50” value came out at 40 pM and the “Emax (RLU)” value is 1.26e+06 RLU.

B5: DGL282 (bispecific antibody, human IgG1, lambda)
heavy 1: EVQLLESGGGLVQPGGSLRLSCAASGFTFSIYAMSWVRQAPGKGLEWVSAISGSGGSTYYADSVKGRFTISRDNSKNTLYLQMNSLRAEDTAVYYCARDFDYWGQGTLVTVTSSASVAAPSVFIFPPSDEQLKSGTASVVCLLNNFYPREAKVQWKVDNALQSGNSQESVTEQDSKDSTYSLSSTLTLSKADYEKHKVYACEVTHQGLSSPVTKSFNRGECDKTHTCPPCPAPEAAGAPSVFLFPPKPKDTLMISRTPEVTCVVVDVSHEDPEVKFNWYVDGVEVHNAKTKPREEQYNSTYRVVSVLTVLHQDWLNGKEYKCKVSNKALPAPIEKTISKAKGQPREPQVCTLPPSRDELTKNQVSLSCAVKGFYPSDIAVEWESNGQPENNYKTTPPVLDSDGSFFLVSKLTVDKSRWQQGNVFSCSVMHEALHNHYTQKSLSLSPGWSHPQFEK
light 1: QSVLTQPPSASGTPGQRVTISCSGSSSNIGSNYVYWYQQLPGTAPKLLIYGNINRPSGVPDRFSGSKSGTSASLAISGLRSEDEADYYCAAWDDSLNGRVFGGGTKLTVLSSASTKGPSVFPLAPSSKSTSGGTAALGCLVKDYFPEPVTVSWNSGALTSGVHTFPAVLQSSGLYSLSSVVTVPSSSLGTQTYICNVNHKPSNTKVDKKVEPKSC
heavy 2: not shown
light 2: not shown
Consider B5, for which the “% Emax BMP9” value is 36%, the “EC50” value turned out to be 170000 pM and the “Emax (RLU)” value worked out at 954000 RLU.

B6: DGL283 (bispecific antibody, human IgG1, lambda)
heavy 1: EVQLLESGGGLVQPGGSLRLSCAASGFTFSSYAMSWVRQAPGKGLEWVANINQDGSEKNYVDSMRGRFTISRDNSKNTLYLQMNSLRAEDTAVYYCAREFDYWGQGTLVTVTSSASVAAPSVFIFPPSDEQLKSGTASVVCLLNNFYPREAKVQWKVDNALQSGNSQESVTEQDSKDSTYSLSSTLTLSKADYEKHKVYACEVTHQGLSSPVTKSFNRGECDKTHTCPPCPAPEAAGAPSVFLFPPKPKDTLMISRTPEVTCVVVDVSHEDPEVKFNWYVDGVEVHNAKTKPREEQYNSTYRVVSVLTVLHQDWLNGKEYKCKVSNKALPAPIEKTISKAKGQPREPQVCTLPPSRDELTKNQVSLSCAVKGFYPSDIAVEWESNGQPENNYKTTPPVLDSDGSFFLVSKLTVDKSRWQQGNVFSCSVMHEALHNHYTQKSLSLSPGWSHPQFEK
light 1: QSVLAQPPSASGTPGQRVTISCSGSSSNIGSNYVYWYQQLPGTAPKLLIYGNNKRPSGVPDRFSGSKSGTSASLAISGLRSEDEADYYCAAWDDSLNGRVFGGGTKLTVLSSASTKGPSVFPLAPSSKSTSGGTAALGCLVKDYFPEPVTVSWNSGALTSGVHTFPAVLQSSGLYSLSSVVTVPSSSLGTQTYICNVNHKPSNTKVDKKVEPKSC
heavy 2: not shown
light 2: not shown
For B6, the “% Emax BMP9” value stood at 33%, the “EC50” value was 28000 pM and the “Emax (RLU)” value came out at 879000 RLU.

B7: DGL288 (bispecific antibody)
chain: EVQLLESGGGLVQPGGSLRLSCAASGFTFSDYYMTWIRQAPGKGLEWVSSISGGSTYYADSRKGRFTISRDNSENTLYLQMNSLRAEDTAVYYCARDFGVAGWFGQYGMDVWGQGTLVTVSSGGGGSGGGGSGGGGSQSVLTQPPSASGTPGQRVTISCTGSSSNIGAGYDVHWYQQLPGTAPKLLIYRSNQRPSGVPDRFSGSKSGTSASLAISGLRSEDEADYYCSSYAGNYNLVFGGGTKLTVLDKGPSVFPLAPEPKSSEVQLLESGGGLVQPGGSLRLSCAASGFTFSSYAMSWVRQAPGKGLEWVANINQDGSEKNYVDSMRGRFTISRDNSKNTLYLQMNSLRAEDTAVYYCAREFDYWGQGTLVTVTSSGGGGSGGGGSGGGGSQSVLAQPPSASGTPGQRVTISCSGSSSNIGSNYVYWYQQLPGTAPKLLIYGNNKRPSGVPDRFSGSKSGTSASLAISGLRSEDEADYYCAAWDDSLNGRVFGGGTKLTVLDKTHTCPPCPAPEAAGAPSVFLFPPKPKDTLMISRTPEVTCVVVDVSHEDPEVKFNWYVDGVEVHNAKTKPREEQYNSTYRVVSVLTVLHQDWLNGKEYKCKVSNKALPAPIEKTISKAKGQPREPQVYTLPPSRDELTKNQVSLTCLVKGFYPSDIAVEWESNGQPENNYKTTPPVLDSDGSFFLYSKLTVDKSRWQQGNVFSCSVMHEALHNHYTQKSLSLSPG
For B7, the “% Emax BMP9” value was 76%, the “EC50” value is 70 pM and the “Emax (RLU)” value was found to be 2e+06 RLU.
